Results from patent US20260242478A1 (published 2026).
Where no end group is shown, it is not given here.

How the values were obtained:
[1] = target: T1, anti-CD28 scFv (VH - linker 1 - VL) (biotinylated (captured on neutravidin coated plates)); assay: clonal phage ELISA; biotinylated anti-CD28 scFv on neutravidin plate, phage detected with anti-M13-HRP;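 note: crude clonal phage supernatants added to wells preincubated with blocking buffer alone or blocking buffer plus soluble CD28 protein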
Experimental: (§1) Clonal phage were harvested as crude supernatants and screened via standard enzyme linked immunosorbent assays (ELISAs). […] Prior to the addition of clonal phage, wells were incubated with blocking buffer and CD28 soluble protein or blocking buffer alone. Without washing or aspirating, clonal phage supernatants were then added to the wells and incubated for a short time. Wells were then washed followed by detection of bound phage using a horse radish peroxidase conjugated anti-M13 antibody.

[2] = target: T1, anti-CD28 scFv (VH - linker 1 - VL); assay: clonal phage ELISA on anti-CD28 scFv; wells pre-incubated with soluble CD28 (competitor);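 note: crude phage supernatants added to wells preloaded with blocking buffer plus soluble CD28, bound phage read with HRP-linked anti-M13 antibody, comparison wells received blocking buffer only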
Experimental: as §1

[3] = target: T2, anti-CD28 scFv (VH - linker 1 - VL) (biotinylated (site not stated)); assay: phage ELISA; biotinylated anti-CD28 scFv on neutravidin plate, clonal phage supernatant, anti-M13-HRP detection;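 note: before phage addition, wells were pretreated with soluble CD28 protein in blocking buffer, or with blocking buffer only as the comparison, then phage were added without washing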
T2 sequence (scFv, as listed by the source): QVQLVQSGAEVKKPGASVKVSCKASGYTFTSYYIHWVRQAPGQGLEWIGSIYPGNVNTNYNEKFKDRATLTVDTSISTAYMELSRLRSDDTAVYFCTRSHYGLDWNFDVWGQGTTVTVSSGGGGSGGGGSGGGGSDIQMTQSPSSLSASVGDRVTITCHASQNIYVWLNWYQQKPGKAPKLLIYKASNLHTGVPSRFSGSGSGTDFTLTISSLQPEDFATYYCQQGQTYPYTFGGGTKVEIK

[4] = target: T2, anti-CD28 scFv (VH - linker 1 - VL); assay: phage ELISA as above, wells pre-incubated with soluble CD28 (competitor);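 note: ELISA of crude clonal phage supernatants added to wells pre-treated with soluble CD28 in blocking buffer, bound phage read out with HRP-conjugated anti-M13 antibody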
[5] = target: T3, anti-CD28 scFv (VH - linker 1 - VL) (biotinylated (site not given)); assay: phage ELISA; biotinylated anti-CD28 scFv on neutravidin plate, clonal phage supernatant, anti-M13-HRP detection;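 note: before phage addition, wells were pretreated with soluble CD28 protein in blocking buffer, or with blocking buffer only as the comparison, then phage were added without washing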
[6] = target: T3, anti-CD28 scFv (VH - linker 1 - VL); assay: phage ELISA as before, wells pre-incubated with soluble CD28 (competitor)
Experimental: as §1

[7] = target: T4, anti-CD28 scFv (VH - linker 1 - VL) (biotinylated (site not stated)); assay: clonal phage ELISA; biotinylated anti-CD28 scFv on neutravidin plate, anti-M13-HRP detection;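 note: crude supernatants of phage clones were tested in wells pretreated with blocking buffer either alone or supplemented with soluble CD28 protein before phage addition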
T4 construct: Captured as biotinylated scFv on neutravidin coated plates in the clonal phage ELISA
T4 sequence (scFv, as listed by the source): as above

[8] = target: T5, Anti-CD28 scFv (VH - linker 1 - VL) (biotinylated (site not stated)); assay: phage ELISA; biotinylated anti-CD28 scFv on neutravidin plate, wells pre-incubated with soluble CD28 (competitor), anti-M13-HRP detection;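 note: bound clonal phage detected by peroxidase-labelled anti-M13 antibody, compared against wells given blocking buffer alone without soluble CD28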
T5 construct: Biotinylated scFv captured on neutravidin coated plates in the panning ELISA
T5 sequence (scFv, as listed by the source): as above

[9] = target: T6, Anti-CD28 scFv (VH - linker 1 - VL) (biotinylated (site not stated)); assay: phage ELISA as above, wells pre-incubated with soluble CD28 (competitor);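 note: ELISA of crude clonal phage supernatants added to wells pre-treated with soluble CD28 in blocking buffer, bound phage read out with HRP-conjugated anti-M13 antibody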
T6 construct: Captured as biotinylated scFv on neutravidin plates in the panning ELISA
T6 sequence (scFv, as listed by the source): as above

[10] = target: anti-CD28 scFv (VH - linker 1 - VL) (biotinylated (site not stated)); assay: phage ELISA; biotinylated anti-CD28 scFv on neutravidin plate, clonal phage supernatant, anti-M13-HRP;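 note: before the phage were added, wells were pre-incubated with soluble CD28 protein in blocking buffer, or with blocking buffer alone, and were not washed in between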
Target sequence in this assay (scFv, as listed by the source): as above

T1 sequence (scFv, as listed by the source): as above
T3 sequence (scFv, as listed by the source): as above

| Binder | CD28 scFv signal [1] | CD28 scFv signal in presence of CD28 [2] | also measured |
| --- | --- | --- | --- |
| MDWCPKDRWNDCYF [Phage-224] | 1.09 |  |  |
| MDWCPRHLWYECFN [Phage-243] | 2.41 | 0.167 |  |
| MDWCPRYLWHECFS [Phage-235] | 2.65 | 0.303 |  |
| MDWCPRYLWHECFD [Phage-244] | 2.07 | 0.177 |  |
| MNWCPSDLWHLCFN (peptide, not shown: large carriers, cysteine pairing not given here; also: displayed as fusion to phage pIII, linker and pIII sequence not given here, Clonal phage of the Peptide-9 library) [Phage-170] |  |  | CD28 scFv signal [3]: 0.739; CD28 scFv signal in presence of CD28 [4]: 0.131 |
| MDWCPKVMWHYCFA [Phage-250] | 1.14 | 0.252 |  |
| MDWCARFVGYGCLD [Phage-232] | 0.065 | 0.074 |  |
| MDWCPRYLWNECFY (tested as crude clonal phage supernatant; not shown: pIII of the bacteriophage to which the peptide is fused) [Phage-66, clonal phage peptide MDWCPRYLWNECFY] |  |  | CD28 scFv signal [5]: 2.54; CD28 scFv signal in presence of CD28 [6]: 0.358 |
| MTWCPTSFWNRCLD [Phage-233] | 0.392 | 0.405 |  |
| MDWCPRNMWTVCFL (tested as crude clonal phage supernatant) [Phage-211] |  |  | CD28 scFv signal [7]: 1.12 |
| MDWCPPYLWSECFA [Phage-238] | 2.6 | 0.234 |  |
| MDWCPRNLWHLCFA [Phage-245] | 1.4 | 0.164 |  |
| MDWCPRDRWIDCFN [Phage-226] | 0.339 | 0.131 |  |
| MDWCPRDRWSDCFN [Phage-227] | 0.102 | 0.074 |  |
| MDWCPKFLWDLCFA (peptide, not shown: large carriers, Clonal phage of the Peptide-9 library) [Phage-164] |  |  | CD28 scFv signal [3]: 1.07; CD28 scFv signal in presence of CD28 [4]: 0.139 |
| MDWCPRYLWNVCFA (tested as crude phage supernatant) [Phage-289] |  |  | CD28 scFv signal in presence of CD28 [8]: 0.28 |
| MDWCPRDRWVDCFF [Phage-223] | 1.58 | 0.14 |  |
| MDWCPRDRWADCFF [Phage-225] | 0.392 | 0.089 |  |
| VPWCQIISGLECLT [Phage-229] | 0.174 | 0.077 |  |
| APWCQIISGLECLT [Phage-230] | 0.169 | 0.078 |  |
| MDWCPSDMWAHCYN [Phage-249] | 1.21 | 0.109 |  |
| IDWCPMHMWDFCYN [Phage-390] |  |  | CD28 scFv signal in presence of CD28 [9]: 0.232 |
| MNWCPTALWHVCFN (tested as crude clonal phage supernatant; not shown: pIII of the bacteriophage to which the peptide is fused) [Phage-67, clonal phage peptide MNWCPTALWHVCFN] |  |  | CD28 scFv signal [5]: 1.64; CD28 scFv signal in presence of CD28 [6]: 0.169 |

| Binder | CD28 scFv signal [1] | CD28 scFv signal in presence of CD28 [2] | also measured |
| --- | --- | --- | --- |
| MDWCPKHLWTECFA [Phage-242] | 2.49 | 0.145 |  |
| MDWCPLYLWAECFN (tested as crude phage supernatant) [Phage-298] |  |  | CD28 scFv signal in presence of CD28 [8]: 0.193 |
| MSWCPQDLWHVCFN (peptide, not shown: large carriers, cysteine pairing not given here; also: displayed as fusion to phage pIII, linker and pIII sequence not given here, Clonal phage of the Peptide-9 library) [Phage-167] |  |  | CD28 scFv signal [3]: 0.86; CD28 scFv signal in presence of CD28 [4]: 0.112 |
| MDWCPKDLWHECFN (peptide, not shown: large carriers, cysteine pairing not given here; also: displayed as fusion to phage pIII, linker and pIII sequence not given here, Clonal phage of the Peptide-9 library) [Phage-168] |  |  | CD28 scFv signal [3]: 0.762; CD28 scFv signal in presence of CD28 [4]: 0.1 |
| MDWCPFYLWDECFL (peptide, not shown: large carriers, Clonal phage of the Peptide-9 library) [Phage-165] |  |  | CD28 scFv signal [3]: 1.02; CD28 scFv signal in presence of CD28 [4]: 0.141 |
| MDWCPRYLWHVCFN [Phage-239] | 2.6 | 0.409 |  |
| MDWCPRTLWHVCFN [Phage-240] | 2.6 | 0.551 |  |
| ITWCHVISGLECWN [Phage-228] | 0.193 | 0.1 |  |
| MDWCPSYLWHECFF [Phage-237] | 2.61 | 0.447 |  |
| MDWCPRALWFECFF [Phage-234] | 2.67 | 0.331 |  |
| MFWCPRYLWHECFN (peptide, not shown: large carriers, Clonal phage of the Peptide-9 library) [Phage-163] |  |  | CD28 scFv signal [3]: 1.08; CD28 scFv signal in presence of CD28 [4]: 0.175 |
| VPWCLIISGLDCLN (also called VPWCLIISGLDCIN (so in the source)) [Phage-231] | 0.107 | 0.09 |  |
| MDWCPRFMWAECFN [Phage-247] | 2.6 | 0.341 |  |
| MDWCPRHLWHECYS [Phage-241] | 2.58 | 0.374 |  |
| MDWCPMYMWYECFA (tested as crude clonal phage supernatant; not shown: pIII of the bacteriophage to which the peptide is fused) [Phage-68, clonal phage peptide MDWCPMYMWYECFA] |  |  | CD28 scFv signal [5]: 2.48; CD28 scFv signal in presence of CD28 [6]: 0.358 |
| LHWCPTSMWTYCYY [Phage-392] |  |  | CD28 scFv signal in presence of CD28 [9]: 2.46 |
| MDWCPRNMWHHCFD [Phage-248] | 1.6 | 0.524 |  |
| MDWCPRDLWNLCFF [Phage-236] |  | 0.436 |  |
| MNWCPSHLWHMCYF (peptide, not shown: large carriers, cysteine pairing not given here; also: displayed as fusion to phage pIII, linker and pIII sequence not given here, Clonal phage of the Peptide-9 library) [Phage-171] |  |  | CD28 scFv signal [3]: 0.702; CD28 scFv signal in presence of CD28 [4]: 0.192 |
| MDWCPKHLWNKCFN [Phage-246] | 1.16 | 0.092 |  |
| MDWCPRHLWTECFS (tested as crude phage supernatant) [Phage-297] |  |  | CD28 scFv signal in presence of CD28 [8]: 0.243 |
| MNWCPTDLWHECFN (peptide, not shown: large carriers, Clonal phage of the Peptide-9 library) [Phage-162] |  |  | CD28 scFv signal [3]: 1.09; CD28 scFv signal in presence of CD28 [4]: 0.095 |
| MDWCPPHLWHECFF [Phage-358 clonal phage peptide MDWCPPHLWHECFF] |  |  | CD28 scFv signal [10]: 1.45 |
